Measurements taken from US6444641.

Biological target: serum albumin (UniProt P08835)
Assay: cell-based or functional assay

UniProt P08835, sequence (P08835 25-607 limits assumed): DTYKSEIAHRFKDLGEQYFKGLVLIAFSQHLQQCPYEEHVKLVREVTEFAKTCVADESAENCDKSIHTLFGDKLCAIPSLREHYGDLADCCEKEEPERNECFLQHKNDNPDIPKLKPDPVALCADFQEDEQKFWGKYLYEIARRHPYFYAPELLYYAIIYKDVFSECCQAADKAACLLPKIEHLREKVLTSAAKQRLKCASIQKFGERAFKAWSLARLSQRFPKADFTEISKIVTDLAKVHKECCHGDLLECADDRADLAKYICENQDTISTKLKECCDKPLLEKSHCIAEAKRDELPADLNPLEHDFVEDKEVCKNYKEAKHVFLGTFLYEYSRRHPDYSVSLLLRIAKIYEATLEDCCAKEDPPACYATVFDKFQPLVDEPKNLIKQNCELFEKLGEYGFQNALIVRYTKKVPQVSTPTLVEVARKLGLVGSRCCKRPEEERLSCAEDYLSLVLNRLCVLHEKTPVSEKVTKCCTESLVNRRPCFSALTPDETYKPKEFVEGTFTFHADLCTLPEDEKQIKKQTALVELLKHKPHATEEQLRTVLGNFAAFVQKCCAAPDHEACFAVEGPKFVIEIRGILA

Work on “B29-N^ε-myristoyl human insulin (from UniProt P01308 90-110; P01308 25-54) (ligand)” yielded a plasma drug levels at 100 minutes after subcutaneous injection (6 nmol/kg) in pigs, by double antibody radioimmunoassay of 18 fold.
